What all share (assay): AVEXIS screen signal:noise (double-corrected)
Assay [1] addresses T1, ADP372.
T1 chain: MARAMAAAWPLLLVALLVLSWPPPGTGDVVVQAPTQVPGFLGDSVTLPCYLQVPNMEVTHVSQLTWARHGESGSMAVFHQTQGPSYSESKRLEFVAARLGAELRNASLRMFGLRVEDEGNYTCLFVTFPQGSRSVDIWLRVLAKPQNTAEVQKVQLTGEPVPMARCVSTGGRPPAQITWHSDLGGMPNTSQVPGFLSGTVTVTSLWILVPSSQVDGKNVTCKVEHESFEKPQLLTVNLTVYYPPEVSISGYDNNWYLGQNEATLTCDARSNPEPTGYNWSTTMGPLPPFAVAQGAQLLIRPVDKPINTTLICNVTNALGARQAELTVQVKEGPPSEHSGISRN

In assay [2] the target is T2, ADP150.
T2 chain: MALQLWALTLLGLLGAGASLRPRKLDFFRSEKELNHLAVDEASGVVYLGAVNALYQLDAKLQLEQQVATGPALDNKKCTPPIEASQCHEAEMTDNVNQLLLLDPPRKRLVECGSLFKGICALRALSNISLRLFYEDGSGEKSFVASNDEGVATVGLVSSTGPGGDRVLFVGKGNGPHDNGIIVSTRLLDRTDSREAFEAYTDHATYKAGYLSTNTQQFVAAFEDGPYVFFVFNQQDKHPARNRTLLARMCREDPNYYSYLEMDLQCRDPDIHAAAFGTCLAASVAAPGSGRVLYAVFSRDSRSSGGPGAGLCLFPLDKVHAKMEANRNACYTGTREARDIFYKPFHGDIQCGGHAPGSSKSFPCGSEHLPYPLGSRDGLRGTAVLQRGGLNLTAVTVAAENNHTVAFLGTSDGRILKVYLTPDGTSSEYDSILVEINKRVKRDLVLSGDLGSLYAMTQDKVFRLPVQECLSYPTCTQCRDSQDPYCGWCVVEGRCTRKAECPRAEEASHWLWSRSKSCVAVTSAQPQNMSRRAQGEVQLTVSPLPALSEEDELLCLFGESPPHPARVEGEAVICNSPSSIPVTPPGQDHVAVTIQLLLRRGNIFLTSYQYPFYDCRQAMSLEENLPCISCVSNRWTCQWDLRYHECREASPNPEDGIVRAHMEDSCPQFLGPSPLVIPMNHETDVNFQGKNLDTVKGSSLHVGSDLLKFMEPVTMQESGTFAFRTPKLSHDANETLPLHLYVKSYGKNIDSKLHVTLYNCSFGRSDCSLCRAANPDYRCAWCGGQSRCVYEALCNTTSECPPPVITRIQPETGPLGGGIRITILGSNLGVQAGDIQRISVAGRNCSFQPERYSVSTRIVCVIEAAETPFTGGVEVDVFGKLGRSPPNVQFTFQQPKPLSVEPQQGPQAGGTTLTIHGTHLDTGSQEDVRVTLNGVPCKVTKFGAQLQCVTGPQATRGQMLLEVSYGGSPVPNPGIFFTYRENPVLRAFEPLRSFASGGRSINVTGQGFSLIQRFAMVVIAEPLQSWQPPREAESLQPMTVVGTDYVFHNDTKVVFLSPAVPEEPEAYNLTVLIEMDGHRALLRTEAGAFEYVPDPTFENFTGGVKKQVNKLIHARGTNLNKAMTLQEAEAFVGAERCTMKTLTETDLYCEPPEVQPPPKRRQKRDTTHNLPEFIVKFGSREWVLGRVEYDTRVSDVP

In assay [3] the target is T3, ADP103.
T3 chain: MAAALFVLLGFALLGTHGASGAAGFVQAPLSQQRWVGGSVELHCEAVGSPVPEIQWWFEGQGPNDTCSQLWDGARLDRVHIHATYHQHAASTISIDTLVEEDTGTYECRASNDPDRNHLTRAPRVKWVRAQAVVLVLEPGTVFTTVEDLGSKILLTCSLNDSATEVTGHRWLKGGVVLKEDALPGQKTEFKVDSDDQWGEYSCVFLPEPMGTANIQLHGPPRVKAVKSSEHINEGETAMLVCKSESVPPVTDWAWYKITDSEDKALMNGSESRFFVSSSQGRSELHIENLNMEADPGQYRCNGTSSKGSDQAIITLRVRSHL

For assay [4], the target named is T4, ADP133.
T4 chain: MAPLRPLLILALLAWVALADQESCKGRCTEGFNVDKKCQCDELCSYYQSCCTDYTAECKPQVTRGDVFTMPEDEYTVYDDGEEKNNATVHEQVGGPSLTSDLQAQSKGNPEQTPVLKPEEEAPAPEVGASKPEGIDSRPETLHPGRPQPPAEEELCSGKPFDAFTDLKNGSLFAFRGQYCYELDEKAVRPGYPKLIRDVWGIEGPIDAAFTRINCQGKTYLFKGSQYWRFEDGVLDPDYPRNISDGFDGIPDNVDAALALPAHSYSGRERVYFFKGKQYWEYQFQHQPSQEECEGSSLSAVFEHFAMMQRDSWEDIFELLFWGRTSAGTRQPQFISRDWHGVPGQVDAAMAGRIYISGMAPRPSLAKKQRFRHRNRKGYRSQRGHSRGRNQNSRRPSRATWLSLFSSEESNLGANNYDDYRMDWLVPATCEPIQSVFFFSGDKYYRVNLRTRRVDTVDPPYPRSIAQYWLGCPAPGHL

Assay [5] addresses T5, ADP315.
T5 chain: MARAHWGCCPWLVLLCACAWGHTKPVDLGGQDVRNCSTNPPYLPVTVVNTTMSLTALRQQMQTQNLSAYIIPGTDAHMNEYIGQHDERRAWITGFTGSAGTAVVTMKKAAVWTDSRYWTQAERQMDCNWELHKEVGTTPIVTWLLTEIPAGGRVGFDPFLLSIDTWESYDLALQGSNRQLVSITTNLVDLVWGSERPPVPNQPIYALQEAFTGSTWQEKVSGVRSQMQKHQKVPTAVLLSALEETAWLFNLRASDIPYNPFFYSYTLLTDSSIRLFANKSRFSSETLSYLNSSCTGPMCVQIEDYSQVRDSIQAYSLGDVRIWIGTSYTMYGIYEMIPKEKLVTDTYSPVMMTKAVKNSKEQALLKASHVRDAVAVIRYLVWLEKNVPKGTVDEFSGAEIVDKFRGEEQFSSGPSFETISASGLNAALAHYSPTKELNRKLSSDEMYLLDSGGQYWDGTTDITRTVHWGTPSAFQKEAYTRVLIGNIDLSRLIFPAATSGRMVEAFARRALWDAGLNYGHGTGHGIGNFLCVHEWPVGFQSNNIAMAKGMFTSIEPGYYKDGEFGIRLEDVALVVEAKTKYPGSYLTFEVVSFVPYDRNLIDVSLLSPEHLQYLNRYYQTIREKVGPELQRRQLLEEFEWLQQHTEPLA

The target of assay [6] is ADP323.
In assay [7] the target is ADP112.
The target in assay [8] is ADP110.

B1: ADP178 (protein)
chain: SDTFRVFEDFDVRRKNKIWCCNLNHEKSYFHNKAINTAYKNRVLKESILLNLDLDMKKYKDNIITRKKTPENIYKEIYENNYEMKYDEDIPNNMAEEKRDEKEVIEHLEIDEKNGKQYKSDINKPVSLSHLKQYKNIYVNNNNKINKKKSIDKHLPSYNLERKNNKYLNFLLVDNRNEAYTFMVPMKFYINHEMYNIADEEYNKLMEDNSVDVYLNNILVEYKYENFEIKEGEVDGEVEGEGEVEGEVEGEVKGKVVEGIENNMNEEEKYNKDNKDKENQINSNGQDENTEFQENDNNDAVIMKYT
modifications: bait human Fc-tagged dimer; N-glycosylation sequons mutated in Plasmodium baits
With B1, the binding score in assay [1] came out at 5.47; in assay [2], 8.31; in assay [3], 10.2.

B2: ADP173 (protein)
chain: EVESSDSTSFLNLISGQSSSNSDDTVSSSDSRGVVASVSGTVDSDVSRTDSTGNVNSKNSELSETRQNSVEQNNNANSADNSIKIKSAFLKENVGVKITGPCDEGFGLVMVPHIIINVDTRNTDIQLGKKSSEINYGIKLRKKGKDEYEEKVGIDLLKNVCETGKNFKFVAYIKGDELIIKWKVIEEGNIPIDIKKFKIKRMSPPITSIQVFSSMSDEKSFVLENKNYVVTNNMPEKCEALATNCFLSGNIDIEKCYQCSLLVENDAKSDVCYNFISRENKEKLNEERFKVKGSTEYEESVESELKGAIDLLISSFYKSDGENGENVLISFEDLNSALEDDIINFCSLLKLVDLSGTFMNHQIGTTADAFNNIVKLLKEHKEEDEFVLRTKLRNPALCMKNVDDWVKSRCGLLTSDDSYVVIKKNSDTNGKNENNEANDEEYDGVIDLSTNENGNVKSIQFNDDIYCNDDYCNRWKNENNCISKIGVEDQGNCASSWAFASKLHFETLRCMKGYDHLGISALYLTNCAKGKISKRCTEGGNPAEFLEIVSNSGFLPTEFDYPYFYALVENSCPSGLNKWINLWEDVKLFDYKYEPNSIGSKGYSVYKSEMFKDNMDEYVKMIKSEIKNKGSVIAYINAQSVLTYDFNGKNILNMCGSKTTDHSINVIGYGHYKNKEGEEKSYWLVRNSWGYYWGDEGNFKVDMYGPSNCNYHFINTVLVFNIDIPMMNNNENNKKGLYNYFPKYTHEFYHNFYDQNFGSDNKISLINSNGANKNDVNNAYTVHGQSGETEVQPSQLRSTANQDSNRGAVTSDPLRTQPETTSTSVKKMDVFQVLKHVKNSKIKVGLIKYDNDDEIGAHHSCTRAYSFDPEKYDECVEFCRKNWEQCKDKPSPGFCLTKLDESKGCFFCYV
modifications: bait human Fc-tagged dimer; N-glycosylation sequons mutated in Plasmodium baits
On to B2, for which the binding score was found to be 6.59 in assay [4], 5.31 in assay [5], 7.35 in assay [6] and 7.09 in assay [3].

B3: ADP189 (protein)
chain: NNIAHKEDDCGASELAIKKLQELKKFELDILKDFIKKDTDHTDMYKRYHCISSDFLKNTKQEDKKEDNYAKKEDKKDIENSANYIINNKNEKISFINKIISFVGMWNYNKYGNNIQESKNKINIYNNNNNKAENELLYNKEDYTNHIPTNENPNSYMQLSAFNLAKKSMFLGGKDNAAQNFEVGNYGSFYMIFGARNTDYPWACSCDTLQLEEYKEKKRSYVLCSNQLDMSIQNSDLFCNPKN
modifications: bait human Fc-tagged dimer; N-glycosylation sequons mutated in Plasmodium baits
Take B3: the figures for the binding score in assay [7] and in assay [8] were 7.26 and 34.1, respectively.
